In IntAct's records for PubMed 21368759:

B1: Adapter protein MecA 1 (Bacillus subtilis), P37958 (parent)
chain: MEIERINEHTVKFYMSYGDIEDRGFDREEIWYNRERSEELFWEVMDEVHEEEEFAVEGPLWIQVQALDKGLEIIVTKAQLSKDGQKLELPIPEDKKQEPASEDLDALLDDFQKEEQAVNQEEKEQKLQFVLRFGDFEDVISLSKLNVNGSKTTLYSFENRYYLYVDFCNMTDEEVENQLSILLEYATESSISIHRLEEYGKLIISEHALETIKKHFAS
partner: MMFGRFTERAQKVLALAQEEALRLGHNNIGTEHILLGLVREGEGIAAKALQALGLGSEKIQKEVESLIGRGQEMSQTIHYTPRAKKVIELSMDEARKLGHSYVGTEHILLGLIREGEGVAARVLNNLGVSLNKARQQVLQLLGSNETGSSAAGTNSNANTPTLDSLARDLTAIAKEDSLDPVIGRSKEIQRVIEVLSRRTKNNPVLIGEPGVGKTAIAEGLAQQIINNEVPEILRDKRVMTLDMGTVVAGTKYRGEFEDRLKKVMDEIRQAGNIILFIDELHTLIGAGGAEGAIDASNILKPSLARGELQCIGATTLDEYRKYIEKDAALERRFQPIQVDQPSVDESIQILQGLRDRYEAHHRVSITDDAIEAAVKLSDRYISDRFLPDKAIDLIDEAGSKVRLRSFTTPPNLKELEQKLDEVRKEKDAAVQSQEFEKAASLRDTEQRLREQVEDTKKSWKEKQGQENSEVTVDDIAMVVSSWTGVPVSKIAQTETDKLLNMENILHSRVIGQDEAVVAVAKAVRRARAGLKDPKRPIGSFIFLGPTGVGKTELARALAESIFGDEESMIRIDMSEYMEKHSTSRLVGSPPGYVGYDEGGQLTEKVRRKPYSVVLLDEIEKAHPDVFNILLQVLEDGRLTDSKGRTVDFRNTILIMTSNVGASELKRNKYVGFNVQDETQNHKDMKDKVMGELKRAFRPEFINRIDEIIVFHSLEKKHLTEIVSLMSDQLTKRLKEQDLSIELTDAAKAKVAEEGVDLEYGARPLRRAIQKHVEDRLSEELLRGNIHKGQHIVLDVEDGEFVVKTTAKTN

Variants of: B1
Settings: with clpc_bacsu clpC

Variant	effect of a mutation on the interaction
MEIERINEHTVKFYMSYGDIEDRGFDREEIWYNRERSEELFWEVMDEVHEEEEFAVEGPLWIQVQALDKGLEIIVTKAQLSKDGQKLELPIPEDKKQEPASEDLDALLDDFQKEEQAVNQEEKEQKLQFVLRFGDFEDVISLSKLNVNGSKTTLYSFENRYYLYVDFCNMTDEEVENQLSILLRYATESSISIHRLEEYGKLIISEHALETIKKHFAS [E184R]	disrupting interaction
